Experimental findings from paper PMC10786891, “Massively parallel profiling of RNA-targeting CRISPR-Cas13d” are described below.

T1: EsCas13d, nuclease-dead (Eubacterium siraeum, UniProt B0MS50, R295A;H300A;R849A;H854A)
T1 sequence: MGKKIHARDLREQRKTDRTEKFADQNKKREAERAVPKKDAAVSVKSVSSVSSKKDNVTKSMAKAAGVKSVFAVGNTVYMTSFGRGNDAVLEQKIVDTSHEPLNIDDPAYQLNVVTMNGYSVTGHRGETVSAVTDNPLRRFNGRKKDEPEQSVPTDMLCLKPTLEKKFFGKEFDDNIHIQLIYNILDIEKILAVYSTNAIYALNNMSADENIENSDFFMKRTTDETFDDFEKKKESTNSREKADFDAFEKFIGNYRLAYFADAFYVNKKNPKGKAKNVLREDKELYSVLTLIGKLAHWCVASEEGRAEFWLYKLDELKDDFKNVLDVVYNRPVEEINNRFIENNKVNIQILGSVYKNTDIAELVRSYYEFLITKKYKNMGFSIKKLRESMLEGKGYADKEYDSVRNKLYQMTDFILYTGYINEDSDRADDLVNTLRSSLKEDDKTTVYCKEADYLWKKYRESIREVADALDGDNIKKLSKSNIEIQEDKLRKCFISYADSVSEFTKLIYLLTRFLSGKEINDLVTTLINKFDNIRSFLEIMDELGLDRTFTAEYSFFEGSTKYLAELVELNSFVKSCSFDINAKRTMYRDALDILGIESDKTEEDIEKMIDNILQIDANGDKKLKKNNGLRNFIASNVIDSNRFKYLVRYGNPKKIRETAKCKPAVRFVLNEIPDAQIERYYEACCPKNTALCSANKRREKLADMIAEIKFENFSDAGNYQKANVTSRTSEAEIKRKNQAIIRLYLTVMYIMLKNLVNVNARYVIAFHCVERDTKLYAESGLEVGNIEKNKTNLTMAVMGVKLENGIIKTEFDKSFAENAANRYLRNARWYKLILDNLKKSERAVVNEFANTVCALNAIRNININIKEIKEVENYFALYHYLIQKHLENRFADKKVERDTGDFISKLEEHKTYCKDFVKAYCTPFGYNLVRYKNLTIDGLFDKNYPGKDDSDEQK

B1: target 1 U10A,G12C (mixed)
RNA 1: CACCCGUGCAAAAAUGCAGGGGUCUAAAACUGAGCGGAUAACCUCUCUAUGG
RNA 2: GGGAAUGGAUCCACAUCUACGAAUUCGUACCAUAGAGAGCUAAUCCGCUCACCGAGAUCGGAAGAGCACACGU
B2: target 1 insG 3' of 2,insG 3' of 2 (mixed)
RNA 1: B1 RNA 1
RNA 2: GGGAAUGGAUCCACAUCUACGAAUUCGUACCAUAGAGAGGUUAUCCGCUCGGACCGAGAUCGGAAGAGCACACGU
B3: target 1 insG 3' of 1,insU 3' of 1 (mixed)
RNA 1: B1 RNA 1
RNA 2: B2 RNA 2 with G51A, A53U
B4: target 2 MT 5'PFS AGA 3'PFS UUA (mixed)
RNA 1: CACCCGUGCAAAAUUGCAGGGGUCUAAAACCUUCUCCAAAUUGUUUCAUCCU
RNA 2: GGGAAUGGAUCCACAUCUACGAAUUCAGAAGGAUGAAACAAUUUGGAGAAGUUAAGAUCGGAAGAGCACACGU
B5: target 2 MT 5'PFS AAG 3'PFS AAC (mixed)
RNA 1: B4 RNA 1
RNA 2: B4 RNA 2 with G28A, A29G, U52A, U53A, A54C
B6: target 2 MT 5'PFS UUA 3'PFS CUC (mixed)
RNA 1: B4 RNA 1
RNA 2: B4 RNA 2 with A27U, G28U, U52C, A54C
B7: target 2 MT 5'PFS GGC 3'PFS UGU (mixed)
RNA 1: B4 RNA 1
RNA 2: B4 RNA 2 with A27G, A29C, U53G, A54U
B8: target 2 MT 5'PFS GGC 3'PFS UGA (mixed)
RNA 1: B4 RNA 1
RNA 2: B4 RNA 2 with A27G, A29C, U53G
B9: target 2 MT 5'PFS CCA 3'PFS CCU (mixed)
RNA 1: B4 RNA 1
RNA 2: B4 RNA 2 with A27C, G28C, U52C, U53C, A54U
B10: target 2 MT 5'PFS UUA 3'PFS UAC (mixed)
RNA 1: B4 RNA 1
RNA 2: B4 RNA 2 with A27U, G28U, U53A, A54C
B11: target 2 MT 5'PFS AGU 3'PFS CUU (mixed)
RNA 1: B4 RNA 1
RNA 2: B4 RNA 2 with A29U, U52C, A54U
B12: target 2 MT 5'PFS AUU 3'PFS UUA (mixed)
RNA 1: B4 RNA 1
RNA 2: B4 RNA 2 with G28U, A29U
B13: target 2 MT 5'PFS GUC 3'PFS UUC (mixed)
RNA 1: B4 RNA 1
RNA 2: B4 RNA 2 with A27G, G28U, A29C, A54C
B14: target 2 MT 5'PFS AGU 3'PFS CUG (mixed)
RNA 1: B4 RNA 1
RNA 2: B4 RNA 2 with A29U, U52C, A54G
B15: target 2 MT 5'PFS GUC 3'PFS UUA (mixed)
RNA 1: B4 RNA 1
RNA 2: B4 RNA 2 with A27G, G28U, A29C
B16: target 2 MT 5'PFS GCU 3'PFS UCU (mixed)
RNA 1: B4 RNA 1
RNA 2: B4 RNA 2 with A27G, G28C, A29U, U53C, A54U
B17: target 2 MT 5'PFS CUC 3'PFS UCG (mixed)
RNA 1: B4 RNA 1
RNA 2: B4 RNA 2 with A27C, G28U, A29C, U53C, A54G
B18: target 2 MT 5'PFS AGA 3'PFS UUU (mixed)
RNA 1: B4 RNA 1
RNA 2: B4 RNA 2 with A54U
B19: target 2 MT 5'PFS AUC 3'PFS CGA (mixed)
RNA 1: B4 RNA 1
RNA 2: B4 RNA 2 with G28U, A29C, U52C, U53G
B20: target 2 MT 5'PFS GCU 3'PFS UCG (mixed)
RNA 1: B4 RNA 1
RNA 2: B4 RNA 2 with A27G, G28C, A29U, U53C, A54G
B21: target 2 MT 5'PFS UUA 3'PFS CUU (mixed)
RNA 1: B4 RNA 1
RNA 2: B4 RNA 2 with A27U, G28U, U52C, A54U
B22: target 2 MT 5'PFS UUA 3'PFS CUG (mixed)
RNA 1: B4 RNA 1
RNA 2: B4 RNA 2 with A27U, G28U, U52C, A54G
B23: target 2 MT 5'PFS UUA 3'PFS UAG (mixed)
RNA 1: B4 RNA 1
RNA 2: B4 RNA 2 with A27U, G28U, U53A, A54G
B24: target 2 MT 5'PFS CCC 3'PFS UCC (mixed)
RNA 1: B4 RNA 1
RNA 2: B4 RNA 2 with A27C, G28C, A29C, U53C, A54C
B25: target 2 MT 5'PFS AGA 3'PFS UUG (mixed)
RNA 1: B4 RNA 1
RNA 2: B4 RNA 2 with A54G
B26: target 2 MT 5'PFS AGU 3'PFS CUC (mixed)
RNA 1: B4 RNA 1
RNA 2: B4 RNA 2 with A29U, U52C, A54C
B27: target 2 MT 5'PFS GCU 3'PFS UCC (mixed)
RNA 1: B4 RNA 1
RNA 2: B4 RNA 2 with A27G, G28C, A29U, U53C, A54C
B28: target 2 MT 5'PFS UUA 3'PFS UAU (mixed)
RNA 1: B4 RNA 1
RNA 2: B4 RNA 2 with A27U, G28U, U53A, A54U
B29: target 2 MT 5'PFS AUU 3'PFS UUC (mixed)
RNA 1: B4 RNA 1
RNA 2: B4 RNA 2 with G28U, A29U, A54C
B30: target 2 MT 5'PFS GUC 3'PFS UUU (mixed)
RNA 1: B4 RNA 1
RNA 2: B4 RNA 2 with A27G, G28U, A29C, A54U
B31: target 2 MT 5'PFS UUA 3'PFS CUA (mixed)
RNA 1: B4 RNA 1
RNA 2: B4 RNA 2 with A27U, G28U, U52C

Numbering of substitutions follows the chain as printed. Numbers in names are those of the source.

The data set deals with T1, EsCas13d, nuclease-dead. Nature of the data set: crRNA (strand 1, pre-loaded); Mg2+; 40 mM Tris-HCl pH 7.5, 150 mM NaCl, 6 mM MgCl2, 1 mM DTT, 0.1% Tween-20, 0.2 mg/ml BSA; 25 C; 10 min per concentration, then washed. To be noted: tags: His6-TwinStrep-SUMO cleaved; N-terminal SNAP kept (SNAP-Surface 488); label: 3' end held by stalled T7 RNA polymerase.
Take B1: binding was put at a Kd of 8.6 ± 1 nM.
Turning to B2, the Kd worked out at 7.5 ± 0.5 nM.
B3 gave a Kd of 10.5 ± 1.2 nM.
With B4 the figure was 11.7 ± 2.2 nM; with B5, 3.1 ± 1 nM; with B6, 55 ± 16 nM.
B7 showed a Kd of 27.8 ± 3.5 nM.
In turn, B8 came in with a Kd of 18 ± 4 nM.
In turn, B9 came in with a Kd of 4.9 ± 0.6 nM.
B10 came in with a Kd of 37 ± 7 nM.
The molecule B11 came in with a Kd of 24 ± 8 nM.
On to B12, for which the Kd worked out at 13.5 ± 2.1 nM.
As for B13, the Kd was ~47 nM.
Molecule B14 showed a Kd of 11.4 ± 1.5 nM.
With B15 the figure was 31 ± 6 nM; with B16, 34 ± 11 nM.
B17 showed a Kd of 4 ± 0.8 nM.
B18 had a Kd of 13.2 ± 2.6 nM.
Turning to B19, the Kd was found to be 61 ± 20 nM.
The molecule B20 gave a Kd of 18 ± 4 nM.
Turning to B21, binding was put at a Kd of 36 ± 6 nM.
As to B22, the Kd came to 24 ± 2.7 nM.
In turn, B23 came in with a Kd of 22 ± 5 nM.
For the molecule B24, the affinity, expressed as Kd, was 2.1 ± 0.5 nM.
As for B25, the affinity, expressed as Kd, was 6.1 ± 1 nM.
B26: the Kd was ~50 nM.
Molecule B27 had a Kd of 40 ± 8 nM.
B28: the affinity, expressed as Kd, was 15.9 ± 2.4 nM.
Take B29: binding was characterised by a dissociation constant (Kd) of 23 ± 5 nM.
With B30 the figure was 58 ± 15 nM; with B31, 20.9 ± 3.3 nM.

A word on the Kd: it is the constant that tells how readily two partners part at equilibrium. Low values mean tighter binding, high ones weaker binding.
